From the supplement of paper PMC9112550, “Optimization of the antimicrobial peptide Bac7 by deep mutational scanning” (BMC Biology, 2022) come the findings set out here.
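Further: peptides expressed intracellularly from a pBAD plasmid library in pooled LB shake-flask culture, induced with 0.3% L-arabinose, DNA abundance read by NGS, three biological replicates, DESeq2 with apeglm shrinkage.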

The data set has as its system Escherichia coli TOP10. The experiment in a line: shrunken log2 fold change of peptide-encoding DNA abundance (4.5 h post-induction vs induction); higher = less antimicrobial activity (less host growth inhibition). The settings on record: time post-induction: 4.5 h; library: site-saturation at positions 5, 18, 19, 20.
As to RRIRLRPPRLPRPRPRPRLAPRP, the “shrunken log2 fold change” value came out at 0.624. As for RRIRLRPPRLPRPRPRPDWCPRP, the “shrunken log2 fold change” value stood at 0.0707. The result for RRIRWRPPRLPRPRPRPVAPPRP reads 0.522; that for RRIRARPPRLPRPRPRPRYCPRP, -0.15.

Turning to RRIRCRPPRLPRPRPRPIVEPRP, the “shrunken log2 fold change” value is -0.151. Regarding RRIRLRPPRLPRPRPRPFRIPRP, the “shrunken log2 fold change” value was found to be 0.0742.

On to RRIRFRPPRLPRPRPRPGEKPRP, for which the “shrunken log2 fold change” value turned out to be 0.084.

On to RRIRSRPPRLPRPRPRPTPRPRP, for which the “shrunken log2 fold change” value was 0.843. As for RRIRIRPPRLPRPRPRPFCPPRP, the “shrunken log2 fold change” value was -0.463. Turning to RRIRVRPPRLPRPRPRPFKHPRP, the “shrunken log2 fold change” value is -0.0897.

Consider RRIRKRPPRLPRPRPRPNWAPRP, for which the “shrunken log2 fold change” value was determined as 0.279. For RRIRHRPPRLPRPRPRPNKQPRP, the “shrunken log2 fold change” value was -0.545. For RRIRVRPPRLPRPRPRPHMWPRP, the “shrunken log2 fold change” value was -0.49. For the sequence RRIRIRPPRLPRPRPRPVCMPRP, the “shrunken log2 fold change” value was -0.564. For RRIRWRPPRLPRPRPRPMKDPRP, the “shrunken log2 fold change” value is -0.141.

Regarding RRIRIRPPRLPRPRPRPQEQPRP, the “shrunken log2 fold change” value was -0.0376. Take RRIRCRPPRLPRPRPRPDCTPRP: the “shrunken log2 fold change” value is -0.232. Regarding RRIRLRPPRLPRPRPRPRSYPRP, the “shrunken log2 fold change” value was -0.227.

Take RRIRLRPPRLPRPRPRPFVGPRP: the “shrunken log2 fold change” value came to 4.94e-06.

As to RRIRSRPPRLPRPRPRPVPRPRP, the “shrunken log2 fold change” value was 0.427. With RRIRWRPPRLPRPRPRPHWQPRP, the “shrunken log2 fold change” value was -0.00204. Take RRIRTRPPRLPRPRPRPWCWPRP: the “shrunken log2 fold change” value is -0.0632. Turning to RRIRHRPPRLPRPRPRPEKKPRP, the “shrunken log2 fold change” value was -0.00333. As for RRIRCRPPRLPRPRPRPKVQPRP, the “shrunken log2 fold change” value was found to be 0.0235. Next, RRIRCRPPRLPRPRPRPGMWPRP: 0.211; RRIRIRPPRLPRPRPRPTYWPRP: -0.421; RRIRHRPPRLPRPRPRPYIWPRP: -0.431. Turning to RRIRMRPPRLPRPRPRPEYNPRP, the “shrunken log2 fold change” value was found to be 0.25. On to RRIRNRPPRLPRPRPRPVVEPRP, for which the “shrunken log2 fold change” value is -0.00885. Next, RRIRGRPPRLPRPRPRPQHGPRP: 0.137; RRIRYRPPRLPRPRPRPITPPRP: -0.174.

Take RRIRWRPPRLPRPRPRPRVGPRP: the “shrunken log2 fold change” value was found to be 0.563. Take RRIRWRPPRLPRPRPRPPPMPRP: the “shrunken log2 fold change” value came out at 0.72.

As for RRIRLRPPRLPRPRPRPNAWPRP, the “shrunken log2 fold change” value is 0.0821. Take RRIRKRPPRLPRPRPRPVWHPRP: the “shrunken log2 fold change” value worked out at 0.0861. In the case of RRIRRRPPRLPRPRPRPKVIPRP, the “shrunken log2 fold change” value is -0.256.

RRIRIRPPRLPRPRPRPKFCPRP: the “shrunken log2 fold change” value is -0.639. For the sequence RRIRFRPPRLPRPRPRPVVCPRP, the “shrunken log2 fold change” value is -0.0801.

RRIRMRPPRLPRPRPRPAYCPRP: the “shrunken log2 fold change” value is 0.075. Consider RRIRKRPPRLPRPRPRPRVFPRP, for which the “shrunken log2 fold change” value was found to be 0.701. The result for RRIRERPPRLPRPRPRPKPQPRP reads 0.309; that for RRIRKRPPRLPRPRPRPQGWPRP, 0.116; that for RRIRKRPPRLPRPRPRPENQPRP, 0.156. Next, RRIRIRPPRLPRPRPRPAWNPRP: 0.146; RRIRQRPPRLPRPRPRPPTNPRP: 0.201; RRIRVRPPRLPRPRPRPHRHPRP: -0.357. Take RRIRRRPPRLPRPRPRPPIIPRP: the “shrunken log2 fold change” value was found to be 0.164.

RRIRPRPPRLPRPRPRPEIYPRP: the “shrunken log2 fold change” value was 0.0694. In the case of RRIRHRPPRLPRPRPRPIYVPRP, the “shrunken log2 fold change” value was -0.0627.

On to RRIRPRPPRLPRPRPRPMCEPRP, for which the “shrunken log2 fold change” value was -0.0631. Next, RRIRKRPPRLPRPRPRPVPLPRP: 0.185; RRIRYRPPRLPRPRPRPLTSPRP: -0.853; RRIRDRPPRLPRPRPRPTMSPRP: 0.0526. With RRIRQRPPRLPRPRPRPDKGPRP, the “shrunken log2 fold change” value was -0.285. The result for RRIRRRPPRLPRPRPRPMGQPRP reads 0.267; that for RRIRQRPPRLPRPRPRPLIWPRP, 0.855; that for RRIRHRPPRLPRPRPRPFPMPRP, -0.651. Turning to RRIRARPPRLPRPRPRPRFKPRP, the “shrunken log2 fold change” value came out at 0.122. The result for RRIRVRPPRLPRPRPRPNTGPRP reads -0.112; that for RRIRPRPPRLPRPRPRPWKNPRP, -0.0413.

For the sequence RRIRGRPPRLPRPRPRPDISPRP, the “shrunken log2 fold change” value is -0.0115.

RRIRNRPPRLPRPRPRPHATPRP: the “shrunken log2 fold change” value came to 0.00661. Consider RRIRPRPPRLPRPRPRPSRHPRP, for which the “shrunken log2 fold change” value was -0.0917. Turning to RRIRQRPPRLPRPRPRPDSYPRP, the “shrunken log2 fold change” value was -0.127. Regarding RRIRFRPPRLPRPRPRPFYHPRP, the “shrunken log2 fold change” value was -0.727. Take RRIRARPPRLPRPRPRPWVEPRP: the “shrunken log2 fold change” value stood at 0.151. Consider RRIRWRPPRLPRPRPRPATCPRP, for which the “shrunken log2 fold change” value was determined as 0.275. On to RRIRWRPPRLPRPRPRPFVCPRP, for which the “shrunken log2 fold change” value is -0.108. For the sequence RRIRPRPPRLPRPRPRPLGKPRP, the “shrunken log2 fold change” value was -0.361.

As for RRIRNRPPRLPRPRPRPCTSPRP, the “shrunken log2 fold change” value was -0.0712.

Consider RRIRFRPPRLPRPRPRPTGPPRP, for which the “shrunken log2 fold change” value is 0.445.

Take RRIRKRPPRLPRPRPRPSEVPRP: the “shrunken log2 fold change” value was -0.524. On to RRIRERPPRLPRPRPRPPSNPRP, for which the “shrunken log2 fold change” value was -0.208. Turning to RRIRRRPPRLPRPRPRPLTFPRP, the “shrunken log2 fold change” value was found to be 2.56. Take RRIRVRPPRLPRPRPRPWITPRP: the “shrunken log2 fold change” value is -1.08. For the sequence RRIRYRPPRLPRPRPRPRLEPRP, the “shrunken log2 fold change” value is -0.0441.

Take RRIRQRPPRLPRPRPRPADYPRP: the “shrunken log2 fold change” value is -0.155. Take RRIRIRPPRLPRPRPRPNDKPRP: the “shrunken log2 fold change” value was -0.647. For the sequence RRIRSRPPRLPRPRPRPLFMPRP, the “shrunken log2 fold change” value is -0.236. On to RRIRERPPRLPRPRPRPFAQPRP, for which the “shrunken log2 fold change” value is -0.145. For RRIRTRPPRLPRPRPRPHYEPRP, the “shrunken log2 fold change” value was -0.174.

RRIRSRPPRLPRPRPRPHGNPRP: the “shrunken log2 fold change” value was -0.00459. On to RRIRARPPRLPRPRPRPFPGPRP, for which the “shrunken log2 fold change” value was -0.116. The result for RRIRWRPPRLPRPRPRPQCYPRP reads -0.252; that for RRIRFRPPRLPRPRPRPIHRPRP, -0.0271. For RRIRQRPPRLPRPRPRPMDVPRP, the “shrunken log2 fold change” value is -0.0102. As for RRIRCRPPRLPRPRPRPEDSPRP, the “shrunken log2 fold change” value came to 0.00322. Regarding RRIRDRPPRLPRPRPRPSFSPRP, the “shrunken log2 fold change” value was -0.0351. Regarding RRIRMRPPRLPRPRPRPEFVPRP, the “shrunken log2 fold change” value was found to be 0.383. Next, RRIRKRPPRLPRPRPRPRWSPRP: 0.559; RRIRIRPPRLPRPRPRPFHNPRP: -0.213; RRIRARPPRLPRPRPRPFAFPRP: 0.552. RRIRKRPPRLPRPRPRPPKPPRP: the “shrunken log2 fold change” value is 0.319.

RRIRGRPPRLPRPRPRPGQKPRP: the “shrunken log2 fold change” value is 0.494.

In the case of RRIRNRPPRLPRPRPRPRRWPRP, the “shrunken log2 fold change” value worked out at 0.701. Next, RRIRERPPRLPRPRPRPSYCPRP: -0.715. Take RRIRCRPPRLPRPRPRPYAWPRP: the “shrunken log2 fold change” value was -0.553. Take RRIRERPPRLPRPRPRPMTGPRP: the “shrunken log2 fold change” value is -0.0422. For RRIRTRPPRLPRPRPRPIYEPRP, the “shrunken log2 fold change” value was -0.246. With RRIRFRPPRLPRPRPRPENWPRP, the “shrunken log2 fold change” value was determined as 0.0986. In the case of RRIRFRPPRLPRPRPRPEKVPRP, the “shrunken log2 fold change” value is -0.0394.

Regarding RRIRWRPPRLPRPRPRPQWSPRP, the “shrunken log2 fold change” value was -0.0983. With RRIRPRPPRLPRPRPRPIIIPRP, the “shrunken log2 fold change” value was -0.593. For the sequence RRIRMRPPRLPRPRPRPSLTPRP, the “shrunken log2 fold change” value worked out at 0.806. For the sequence RRIRYRPPRLPRPRPRPPHAPRP, the “shrunken log2 fold change” value is -0.0606. In the case of RRIRKRPPRLPRPRPRPIGGPRP, the “shrunken log2 fold change” value is -0.494.

For RRIRQRPPRLPRPRPRPVDLPRP, the “shrunken log2 fold change” value is -0.0892. For RRIRLRPPRLPRPRPRPMNGPRP, the “shrunken log2 fold change” value is -0.618. The result for RRIRIRPPRLPRPRPRPVEKPRP reads -0.126; that for RRIRWRPPRLPRPRPRPMNNPRP, -0.606; that for RRIRRRPPRLPRPRPRPEPQPRP, 1.03. With RRIRMRPPRLPRPRPRPLTNPRP, the “shrunken log2 fold change” value was 0.0401. Regarding RRIRERPPRLPRPRPRPSTMPRP, the “shrunken log2 fold change” value was -0.925.

As to RRIRPRPPRLPRPRPRPQEAPRP, the “shrunken log2 fold change” value came out at 0.0203. In the case of RRIRTRPPRLPRPRPRPAIPPRP, the “shrunken log2 fold change” value was -0.212. RRIRIRPPRLPRPRPRPNGLPRP: the “shrunken log2 fold change” value is 0.0383. For the sequence RRIRWRPPRLPRPRPRPQKVPRP, the “shrunken log2 fold change” value came to 0.166. In the case of RRIRVRPPRLPRPRPRPVFDPRP, the “shrunken log2 fold change” value was -0.079. Regarding RRIRCRPPRLPRPRPRPKNPPRP, the “shrunken log2 fold change” value was determined as 1.17. With RRIRRRPPRLPRPRPRPKWAPRP, the “shrunken log2 fold change” value was 0.0296. For the sequence RRIRDRPPRLPRPRPRPYDQPRP, the “shrunken log2 fold change” value is -0.473.

In the case of RRIRLRPPRLPRPRPRPFGEPRP, the “shrunken log2 fold change” value turned out to be 0.084. Take RRIRFRPPRLPRPRPRPMGAPRP: the “shrunken log2 fold change” value is -0.0556. As for RRIRDRPPRLPRPRPRPYMQPRP, the “shrunken log2 fold change” value was -0.0171. In the case of RRIRGRPPRLPRPRPRPHAEPRP, the “shrunken log2 fold change” value is 2.68.
